# From publication PMC4349660
# Legend:
# [1] = molecular target: Glycophorin A, native, on intact unmodified human erythrocytes (human (endogenous in erythrocytes)) (UniProt P02724); assay: backscattering interferometry (BSI); free solution, label-free; intact erythrocytes at 0.1% haematocrit in 0.01% BSA-PBS, PfEBA175 dilution series up to 1 μM, 1 h at room temperature; reference: neuraminidase-treated erythrocytes, subtracted; square hyperbolic fit
# [2] = molecular target: Basigin, native, on intact unmodified human erythrocytes (human (endogenous in erythrocytes)); assay: backscattering interferometry (BSI); free solution, label-free; intact erythrocytes at 0.1% haematocrit in 0.01% BSA-PBS, PfRH5 dilution series up to 4.5 μM, 1 h at room temperature; reference: erythrocytes pre-incubated with 10 μg/mL anti-BSG antibody MEM-M6/6, subtracted; square hyperbolic fit
Substance,Kd [1] [nM],Kd [2] [nM]
"PfEBA175, entire ectodomain, monomeric Cd4-tagged recombinant protein (ligand)",50,–
"PfRH5, entire ectodomain, Cd4-tagged monomer (ligand)",–,1100
